Consider three molecules from paper PMC12313985 (2025).

The target in the assay is T1, 14-3-3 protein zeta (14-3-3ζ) (UniProt P63104 1-245).
T1 chain: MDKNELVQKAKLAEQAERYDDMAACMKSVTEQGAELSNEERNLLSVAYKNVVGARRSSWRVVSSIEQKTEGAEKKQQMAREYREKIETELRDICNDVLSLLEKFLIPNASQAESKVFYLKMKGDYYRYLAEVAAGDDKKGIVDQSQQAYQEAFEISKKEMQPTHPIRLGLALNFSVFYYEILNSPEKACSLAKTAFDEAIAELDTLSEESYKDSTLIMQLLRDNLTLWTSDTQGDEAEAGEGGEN
Kind of assay: FP.

Square brackets hold non-standard residues; d marks the D form. Ends that are not written are not given here. pS = N[C@@H](COP(=O)(O)O)C(=O)O Where only a bound is given, the exact number is not on record here.

Consider VTSKCG[pS]LGNIHHK (also: fluorescein (FITC) label, position not given here) [Fluorescein-labelled mono-phospho-Tau pS324 peptide], for which the Kd is above 100 µM.

In turn, SRTP[pS]LPTPPTREGGGSGGGSGGGVTSKCG[pS]LGNIHHK (also: fluorescein (FITC) label, position not given here) [Fluorescein (FITC)-labelled bi-phospho Tau peptide pS2 (Tau^210–222-GGGSGGGSGGG-Tau^318–331)] yielded a Kd of 0.945 µM. The same measure for SRTP[pS]LPTPPTRE (also: fluorescein (FITC) label, position not given here) [Fluorescein-labelled mono-phospho-Tau pS214 peptide]: above 100 µM.

Usually Kd stands for the constant that tells how readily two partners part at equilibrium. A low value points to higher affinity.
